target: T1, DFNB31_1, Q9P202; test: holdup assay; set-up: key: below the threshold = too weak to quantify, mostly under pKd 3.1 to 4; conditions: plain residues with an end cap or a label only (N-terminal biotin on a linker: ado-ado)
T1 sequence (Q9P202 135-233, limits assumed, looked up): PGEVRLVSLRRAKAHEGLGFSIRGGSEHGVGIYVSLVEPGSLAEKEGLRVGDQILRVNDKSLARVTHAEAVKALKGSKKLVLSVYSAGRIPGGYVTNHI

| Binder | pKd |
| --- | --- |
| RKPKPSSSCC [RAB9A, P51151] | below the threshold |
| YRLAQESGLV [ABCC6, O95255] | below the threshold |

target: Inadl_10, Q8NI35; test: holdup assay; set-up: key: below the threshold = too weak to quantify, mostly under pKd 3.1 to 4; conditions: plain residues with an end cap or a label only (N-terminal biotin on a linker: ado-ado)
Sequence (Q8NI35 1673-1763): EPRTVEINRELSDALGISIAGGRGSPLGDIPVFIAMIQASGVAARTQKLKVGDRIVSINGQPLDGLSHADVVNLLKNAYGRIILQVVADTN

| Binder | pKd |
| --- | --- |
| RKPKPSSSCC [RAB9A, P51151] | below the threshold |
| YRLAQESGLV [ABCC6, O95255] | below the threshold |

target: T2, HTRA3, P83110; test: holdup assay; set-up: key: below the threshold = too weak to quantify, mostly under pKd 3.1 to 4; conditions: plain residues with an end cap or a label only (N-terminal biotin on a linker: ado-ado)
T2 sequence (P83110 354-453, limits assumed, looked up): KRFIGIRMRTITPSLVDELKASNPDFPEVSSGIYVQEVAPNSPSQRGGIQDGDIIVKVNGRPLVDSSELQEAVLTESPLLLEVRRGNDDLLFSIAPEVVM

| Binder | pKd |
| --- | --- |
| RKPKPSSSCC [RAB9A, P51151] | 4.6 |
| YRLAQESGLV [ABCC6, O95255] | below the threshold |

target: NOS1, P29475; test: holdup assay; set-up: key: below the threshold = too weak to quantify, mostly under pKd 3.1 to 4; conditions: plain residues with an end cap or a label only (N-terminal biotin on a linker: ado-ado)
Sequence (P29475 9-101): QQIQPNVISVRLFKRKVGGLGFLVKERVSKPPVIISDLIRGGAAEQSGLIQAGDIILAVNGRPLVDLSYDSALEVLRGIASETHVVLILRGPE

| Binder | pKd |
| --- | --- |
| RKPKPSSSCC [RAB9A, P51151] | below the threshold |
| YRLAQESGLV [ABCC6, O95255] | below the threshold |

target: T3, TJP3_3, O95049; test: holdup assay; set-up: key: below the threshold = too weak to quantify, mostly under pKd 3.1 to 4; conditions: plain residues with an end cap or a label only (N-terminal biotin on a linker: ado-ado)
T3 sequence (O95049 375-456, limits assumed, looked up): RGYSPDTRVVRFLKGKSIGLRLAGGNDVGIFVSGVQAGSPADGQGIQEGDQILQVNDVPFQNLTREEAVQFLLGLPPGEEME

| Binder | pKd |
| --- | --- |
| RKPKPSSSCC [RAB9A, P51151] | below the threshold |
| YRLAQESGLV [ABCC6, O95255] | below the threshold |

target: T4, ARHGAP21, Q5T5U3; test: holdup assay; set-up: key: below the threshold = too weak to quantify, mostly under pKd 3.1 to 4; conditions: plain residues with an end cap or a label only (N-terminal biotin on a linker: ado-ado)
T4 sequence (Q5T5U3 45-169, limits assumed, looked up): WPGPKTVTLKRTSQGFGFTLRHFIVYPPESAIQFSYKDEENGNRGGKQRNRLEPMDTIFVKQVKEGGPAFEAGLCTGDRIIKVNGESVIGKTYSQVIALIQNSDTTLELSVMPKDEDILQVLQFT

| Binder | pKd |
| --- | --- |
| RKPKPSSSCC [RAB9A, P51151] | below the threshold |
| YRLAQESGLV [ABCC6, O95255] | 4.1 |

target: T5, APBA2_2, Q99767; test: holdup assay; set-up: key: below the threshold = too weak to quantify, mostly under pKd 3.1 to 4; conditions: plain residues with an end cap or a label only (N-terminal biotin on a linker: ado-ado)
T5 sequence (Q99767 654-744, limits assumed, looked up): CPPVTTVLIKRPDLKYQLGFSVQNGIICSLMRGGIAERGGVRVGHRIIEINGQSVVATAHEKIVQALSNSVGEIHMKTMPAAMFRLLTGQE

| Binder | pKd |
| --- | --- |
| RKPKPSSSCC [RAB9A, P51151] | below the threshold |
| YRLAQESGLV [ABCC6, O95255] | below the threshold |

target: Inadl_4, Q8NI35; test: holdup assay; set-up: key: below the threshold = too weak to quantify, mostly under pKd 3.1 to 4; conditions: plain residues with an end cap or a label only (N-terminal biotin on a linker: ado-ado)
Sequence (Q8NI35 547-651): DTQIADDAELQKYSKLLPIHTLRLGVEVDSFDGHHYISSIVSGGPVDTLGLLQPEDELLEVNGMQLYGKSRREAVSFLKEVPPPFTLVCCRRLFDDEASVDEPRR

| Binder | pKd |
| --- | --- |
| RKPKPSSSCC [RAB9A, P51151] | below the threshold |
| YRLAQESGLV [ABCC6, O95255] | below the threshold |

target: NHERF4_2, Q86UT5; test: holdup assay; set-up: key: below the threshold = too weak to quantify, mostly under pKd 3.1 to 4; conditions: plain residues with an end cap or a label only (N-terminal biotin on a linker: ado-ado)
Sequence (Q86UT5 220-308): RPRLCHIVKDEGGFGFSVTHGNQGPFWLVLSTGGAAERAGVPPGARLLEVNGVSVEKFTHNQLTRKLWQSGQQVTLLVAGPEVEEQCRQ

| Binder | pKd |
| --- | --- |
| RKPKPSSSCC [RAB9A, P51151] | below the threshold |
| YRLAQESGLV [ABCC6, O95255] | below the threshold |

target: T6, DFNB31_3, Q9P202; test: holdup assay; set-up: key: below the threshold = too weak to quantify, mostly under pKd 3.1 to 4; conditions: plain residues with an end cap or a label only (N-terminal biotin on a linker: ado-ado)
T6 sequence (Q9P202 811-907, limits assumed, looked up): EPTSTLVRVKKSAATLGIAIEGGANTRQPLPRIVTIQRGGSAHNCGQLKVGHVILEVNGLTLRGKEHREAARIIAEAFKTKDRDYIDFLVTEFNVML

| Binder | pKd |
| --- | --- |
| RKPKPSSSCC [RAB9A, P51151] | 3.9 |
| YRLAQESGLV [ABCC6, O95255] | 3.94 |

target: T7, RAPGEF6, Q8TEU7; test: holdup assay; set-up: key: below the threshold = too weak to quantify, mostly under pKd 3.1 to 4; conditions: plain residues with an end cap or a label only (N-terminal biotin on a linker: ado-ado)
T7 sequence (Q8TEU7 525-625, limits assumed, looked up): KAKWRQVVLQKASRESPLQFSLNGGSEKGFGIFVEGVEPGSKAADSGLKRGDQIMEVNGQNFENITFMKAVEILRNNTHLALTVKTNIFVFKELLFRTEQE

| Binder | pKd |
| --- | --- |
| RKPKPSSSCC [RAB9A, P51151] | below the threshold |
| YRLAQESGLV [ABCC6, O95255] | below the threshold |

target: T8, MPDZ_12, O75970; test: holdup assay; set-up: key: below the threshold = too weak to quantify, mostly under pKd 3.1 to 4; conditions: plain residues with an end cap or a label only (N-terminal biotin on a linker: ado-ado)
T8 sequence (O75970 1857-1958, limits assumed, looked up): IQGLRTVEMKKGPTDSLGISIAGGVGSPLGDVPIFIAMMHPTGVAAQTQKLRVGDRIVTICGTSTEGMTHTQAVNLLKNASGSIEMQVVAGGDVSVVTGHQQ

| Binder | pKd |
| --- | --- |
| RKPKPSSSCC [RAB9A, P51151] | below the threshold |
| YRLAQESGLV [ABCC6, O95255] | below the threshold |

target: PICK1, Q9NRD5; test: holdup assay; set-up: key: below the threshold = too weak to quantify, mostly under pKd 3.1 to 4; conditions: plain residues with an end cap or a label only (N-terminal biotin on a linker: ado-ado)
Sequence (Q9NRD5 17-115): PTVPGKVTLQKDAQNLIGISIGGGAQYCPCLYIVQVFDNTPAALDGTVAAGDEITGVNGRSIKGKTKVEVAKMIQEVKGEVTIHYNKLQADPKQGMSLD

| Binder | pKd |
| --- | --- |
| RKPKPSSSCC [RAB9A, P51151] | below the threshold |
| YRLAQESGLV [ABCC6, O95255] | 4.19 |

target: T9, LNX2_2, Q8N448; test: holdup assay; set-up: key: below the threshold = too weak to quantify, mostly under pKd 3.1 to 4; conditions: plain residues with an end cap or a label only (N-terminal biotin on a linker: ado-ado)
T9 sequence (Q8N448 334-432, limits assumed, looked up): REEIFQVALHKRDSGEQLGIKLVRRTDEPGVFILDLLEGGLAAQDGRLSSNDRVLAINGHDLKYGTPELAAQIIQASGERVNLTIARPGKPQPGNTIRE

| Binder | pKd |
| --- | --- |
| RKPKPSSSCC [RAB9A, P51151] | below the threshold |
| YRLAQESGLV [ABCC6, O95255] | below the threshold |

target: T10, SNTG1, Q9NSN8; test: holdup assay; set-up: key: below the threshold = too weak to quantify, mostly under pKd 3.1 to 4; conditions: plain residues with an end cap or a label only (N-terminal biotin on a linker: ado-ado)
T10 sequence (Q9NSN8 52-150, limits assumed, looked up): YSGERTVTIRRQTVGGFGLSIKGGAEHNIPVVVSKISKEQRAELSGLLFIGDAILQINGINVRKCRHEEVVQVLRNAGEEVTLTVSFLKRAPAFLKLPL

| Binder | pKd |
| --- | --- |
| RKPKPSSSCC [RAB9A, P51151] | below the threshold |
| YRLAQESGLV [ABCC6, O95255] | below the threshold |

target: MAGI2_6, Q86UL8; test: holdup assay; set-up: key: below the threshold = too weak to quantify, mostly under pKd 3.1 to 4; conditions: plain residues with an end cap or a label only (N-terminal biotin on a linker: ado-ado)
Sequence (Q86UL8 1141-1229): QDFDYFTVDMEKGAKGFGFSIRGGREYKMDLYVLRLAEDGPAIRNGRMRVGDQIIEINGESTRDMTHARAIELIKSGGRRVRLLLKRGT

| Binder | pKd |
| --- | --- |
| RKPKPSSSCC [RAB9A, P51151] | below the threshold |
| YRLAQESGLV [ABCC6, O95255] | below the threshold |

target: T11, SNTB1, Q13884; test: holdup assay; set-up: key: below the threshold = too weak to quantify, mostly under pKd 3.1 to 4; conditions: plain residues with an end cap or a label only (N-terminal biotin on a linker: ado-ado)
T11 sequence (Q13884 107-205, limits assumed, looked up): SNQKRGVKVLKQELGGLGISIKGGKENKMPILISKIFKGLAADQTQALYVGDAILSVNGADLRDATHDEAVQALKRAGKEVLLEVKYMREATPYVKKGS

| Binder | pKd |
| --- | --- |
| RKPKPSSSCC [RAB9A, P51151] | below the threshold |
| YRLAQESGLV [ABCC6, O95255] | 3.57 |

target: PTPN3, P26045; test: holdup assay; set-up: key: below the threshold = too weak to quantify, mostly under pKd 3.1 to 4; conditions: plain residues with an end cap or a label only (N-terminal biotin on a linker: ado-ado)
Sequence (P26045 505-587): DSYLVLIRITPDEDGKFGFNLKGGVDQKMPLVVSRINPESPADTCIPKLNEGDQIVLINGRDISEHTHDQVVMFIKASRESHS

| Binder | pKd |
| --- | --- |
| RKPKPSSSCC [RAB9A, P51151] | 3.83 |
| YRLAQESGLV [ABCC6, O95255] | 3.87 |

target: GIPC2, Q8TF65; test: holdup assay; set-up: key: below the threshold = too weak to quantify, mostly under pKd 3.1 to 4; conditions: plain residues with an end cap or a label only (N-terminal biotin on a linker: ado-ado)
Sequence (Q8TF65 112-203): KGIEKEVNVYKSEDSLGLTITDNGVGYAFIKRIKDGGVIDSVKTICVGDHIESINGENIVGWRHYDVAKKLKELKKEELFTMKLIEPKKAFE

| Binder | pKd |
| --- | --- |
| RKPKPSSSCC [RAB9A, P51151] | 3.73 |
| YRLAQESGLV [ABCC6, O95255] | below the threshold |

target: SCRIB_1, Q14160; test: holdup assay; set-up: key: below the threshold = too weak to quantify, mostly under pKd 3.1 to 4; conditions: plain residues with an end cap or a label only (N-terminal biotin on a linker: ado-ado)
Sequence (Q14160 718-814): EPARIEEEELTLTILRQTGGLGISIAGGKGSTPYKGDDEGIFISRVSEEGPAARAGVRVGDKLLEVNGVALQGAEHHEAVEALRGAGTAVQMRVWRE

| Binder | pKd |
| --- | --- |
| RKPKPSSSCC [RAB9A, P51151] | below the threshold |
| YRLAQESGLV [ABCC6, O95255] | below the threshold |

target: SNX27, Q96L92; test: holdup assay; set-up: key: below the threshold = too weak to quantify, mostly under pKd 3.1 to 4; conditions: plain residues with an end cap or a label only (N-terminal biotin on a linker: ado-ado)

| Binder | pKd |
| --- | --- |
| RKPKPSSSCC [RAB9A, P51151] | below the threshold |
| YRLAQESGLV [ABCC6, O95255] | below the threshold |

target: FRMPD4, Q14CM0; test: holdup assay; set-up: key: below the threshold = too weak to quantify, mostly under pKd 3.1 to 4; conditions: plain residues with an end cap or a label only (N-terminal biotin on a linker: ado-ado)
Sequence (Q14CM0 67-160): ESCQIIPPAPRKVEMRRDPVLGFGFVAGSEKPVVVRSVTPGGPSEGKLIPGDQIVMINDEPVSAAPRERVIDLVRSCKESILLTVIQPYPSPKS

| Binder | pKd |
| --- | --- |
| RKPKPSSSCC [RAB9A, P51151] | below the threshold |
| YRLAQESGLV [ABCC6, O95255] | below the threshold |

target: T12, DFNB31_2, Q9P202; test: holdup assay; set-up: key: below the threshold = too weak to quantify, mostly under pKd 3.1 to 4; conditions: plain residues with an end cap or a label only (N-terminal biotin on a linker: ado-ado)
T12 sequence (Q9P202 274-371, limits assumed, looked up): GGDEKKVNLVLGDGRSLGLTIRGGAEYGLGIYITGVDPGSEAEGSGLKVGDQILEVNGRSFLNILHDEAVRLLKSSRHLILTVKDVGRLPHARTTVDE

| Binder | pKd |
| --- | --- |
| RKPKPSSSCC [RAB9A, P51151] | below the threshold |
| YRLAQESGLV [ABCC6, O95255] | below the threshold |

target: T13, CARD11, Q9BXL7; test: holdup assay; set-up: key: below the threshold = too weak to quantify, mostly under pKd 3.1 to 4; conditions: plain residues with an end cap or a label only (N-terminal biotin on a linker: ado-ado)
T13 sequence (Q9BXL7 662-765, limits assumed, looked up): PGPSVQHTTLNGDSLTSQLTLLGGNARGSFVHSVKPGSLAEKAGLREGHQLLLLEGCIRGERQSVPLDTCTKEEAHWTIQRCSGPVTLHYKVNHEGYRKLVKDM

| Binder | pKd |
| --- | --- |
| RKPKPSSSCC [RAB9A, P51151] | below the threshold |
| YRLAQESGLV [ABCC6, O95255] | below the threshold |

target: IL16_3, Q14005; test: holdup assay; set-up: key: below the threshold = too weak to quantify, mostly under pKd 3.1 to 4; conditions: plain residues with an end cap or a label only (N-terminal biotin on a linker: ado-ado)
Sequence (Q14005 1107-1207): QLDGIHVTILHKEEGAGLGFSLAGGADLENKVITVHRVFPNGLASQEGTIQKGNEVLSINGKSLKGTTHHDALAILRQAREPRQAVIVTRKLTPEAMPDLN

| Binder | pKd |
| --- | --- |
| RKPKPSSSCC [RAB9A, P51151] | below the threshold |
| YRLAQESGLV [ABCC6, O95255] | below the threshold |
